Measured values taken from patent US20020037514A1, “Identification of nuclear receptor-dependent coregulator recruitment” (priority 2000, published 2002).

Biological target: T1, RARα-V5/RXRγ/DR-5 ternary complex (Homo sapiens, UniProt P10276)
T1 construct: the nuclear receptor subunits used in the invention are full length nuclear receptor monomer subunits; expressed in transfected cells; host or cells: CV-1 (green monkey kidney), whole-cell lysate
T1 sequence (P10276 1-462): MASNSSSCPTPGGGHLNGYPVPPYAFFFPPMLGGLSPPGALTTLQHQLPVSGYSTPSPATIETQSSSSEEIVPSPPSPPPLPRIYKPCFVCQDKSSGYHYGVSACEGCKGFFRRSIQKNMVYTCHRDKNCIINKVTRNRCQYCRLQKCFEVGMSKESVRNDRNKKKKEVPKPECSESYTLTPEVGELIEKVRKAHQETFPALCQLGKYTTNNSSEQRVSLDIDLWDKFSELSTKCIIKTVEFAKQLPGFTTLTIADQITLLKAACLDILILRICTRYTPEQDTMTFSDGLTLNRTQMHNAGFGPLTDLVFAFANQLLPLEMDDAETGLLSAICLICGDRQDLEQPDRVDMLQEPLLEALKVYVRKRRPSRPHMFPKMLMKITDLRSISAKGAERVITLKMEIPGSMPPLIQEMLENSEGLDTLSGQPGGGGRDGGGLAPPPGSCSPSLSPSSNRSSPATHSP
T1 sequence (P28705 1-463 partner): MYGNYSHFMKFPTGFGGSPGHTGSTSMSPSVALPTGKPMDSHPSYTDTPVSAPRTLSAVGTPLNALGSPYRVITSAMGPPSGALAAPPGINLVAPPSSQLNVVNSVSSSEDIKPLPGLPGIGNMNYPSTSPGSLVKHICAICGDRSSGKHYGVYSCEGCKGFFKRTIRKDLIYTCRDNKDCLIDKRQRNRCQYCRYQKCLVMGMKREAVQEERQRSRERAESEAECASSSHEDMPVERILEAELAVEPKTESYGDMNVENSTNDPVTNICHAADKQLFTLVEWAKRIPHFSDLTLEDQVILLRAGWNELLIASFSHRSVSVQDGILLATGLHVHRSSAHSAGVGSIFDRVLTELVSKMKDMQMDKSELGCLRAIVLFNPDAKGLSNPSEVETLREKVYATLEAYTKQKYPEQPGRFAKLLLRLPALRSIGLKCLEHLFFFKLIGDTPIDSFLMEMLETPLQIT
Experiment: LXD peptide competition of ATRA-induced co-activator recruitment (Example 7, FIG. 8A)
Format: biochemical
Conditions: SRC-1 peptides at 40 μl (so in the source), DR-5 RARE
From the text: Nolte, R. T. et al., Nature 395:137-143 (1998). We addressed the importance of each of the three LXDs in mediating co-activator-receptor interaction using synthetic peptides comprising the LXD1, LXD2 or LXD3 amino acid sequences as competitors with SRC-1 in the DNA modified immunoprecipitation methods of the present invention. These peptides have the following amino acid sequences (with the characteristic LXXLL motif shown in bold):
Transfection, DR-5 oligonucleotide treatment, ligand treatment, immunoprecipitation and detection of associated co-factors were performed essentially as shown in the previous Examples. CV-1 cells were transfected with plasmids expressing either RARα/RXRγ-V5 or with RARγ/RXRα-V5. Synthetic LXD peptides were added to the cell lysate before the addition of retinoids at a concentration of 20 (ACTR) and 40 (SRC-1) […].

## SLTERHKILHRLLQEGSPSDIT (Nuclear co-activator LXD-containing peptide) [SRC-1 LXD2]
  effect of peptide on ATRA-induced recruitment of SRC-1: completely abolished
